The values below come from the Immune Epitope Database (IEDB).

Assay [1] concerns the target HLA-A*02:01. The assay is described as follows: IEDB peptide-MHC binding, purified MHC/competitive/fluorescence; ≥ and ≤ were set here for values at or beyond the usual limits of such assays.
Assay [2] deals with HLA-B*15:01. The description is as above.
A further assay concerns the target HLA-B*39:01. In words: IEDB peptide-MHC binding, purified MHC/competitive/fluorescence; filed as Kd, often an IC50 or EC50 that approximates it; ≥ and ≤ were set here for values at or beyond the usual limits of such assays.
Assay [3] addresses HLA-B*57:01. Described as above.
Assay [4] addresses HLA-A*26:01. The assay is described as above.
The target in assay [5] is HLA-B*51:01. The description is as above.
The target of a further assay is HLA-A*02:11. Described as above. The conditions noted are these: source organism: Coxiella burnetii 'MSU Goat Q177'.
Assay [6] concerns the target HLA-A*03:01. The assay is described as above.
For another assay, the target named is HLA-B*27:03. The description is as above.
The next assay deals with HLA-A*02:12. The description is as above.
A further assay addresses HLA-B*18:01. The assay is described as above.
A further assay deals with HLA-B*46:01. Described as above.
Assay [7] deals with HLA-B*15:01. Described as above.
The target in the next assay is HLA-A*29:02. The description is as above.
For assay [8], the target named is HLA-A*03:01. In words: IEDB peptide-MHC binding, purified MHC/competitive/fluorescence; ≥ and ≤ were set here for values at or beyond the usual limits of such assays.
In assay [9] the target is HLA-A*24:02. Described as above.
A further assay deals with HLA-A*11:01. The description is as above.
In a further assay the target is HLA-A*68:02. In words: IEDB peptide-MHC binding, purified MHC/competitive/fluorescence; filed as Kd, often an IC50 or EC50 that approximates it; ≥ and ≤ were set here for values at or beyond the usual limits of such assays.
The target in assay [10] is HLA-B*57:01. In words: IEDB peptide-MHC binding, purified MHC/competitive/radioactivity; filed as Kd, often an IC50 or EC50 that approximates it; ≥ and ≤ were set here for values at or beyond the usual limits of such assays.
The target of another assay is HLA-B*58:01. The assay is described as above.
For another assay, the target named is HLA-A*32:01. The description is as above.
The next assay has as its target HLA-A*01:01. In words: IEDB peptide-MHC binding, purified MHC/competitive/fluorescence; filed as Kd, often an IC50 or EC50 that approximates it; ≥ and ≤ were set here for values at or beyond the usual limits of such assays.
A further assay addresses HLA-B*53:01. The assay is described as follows: IEDB peptide-MHC binding, purified MHC/competitive/radioactivity; filed as Kd, often an IC50 or EC50 that approximates it; ≥ and ≤ were set here for values at or beyond the usual limits of such assays.
For assay [11], the target named is HLA-B*51:01. Described as above. The conditions noted are these: source organism: Dengue virus 4 Philippines/H241/1956.
A further assay has as its target HLA-B*08:01. Described as above. To be noted: source organism: Dengue virus 4 Philippines/H241/1956.
Another assay addresses HLA-B*35:01. The description is as above. To be noted: source organism: Dengue virus 3 Singapore/8120/1995.
Assay [12] concerns the target HLA-A*26:01. Described as above. To be noted: source organism: Dengue virus 3 Singapore/8120/1995.
Another assay addresses HLA-A*23:01. The assay is described as above. To be noted: source organism: Dengue virus 3 Singapore/8120/1995.
In assay [13] the target is HLA-A*24:02. The description is as above. To be noted: source organism: Dengue virus 3 Singapore/8120/1995.
In the next assay the target is HLA-A*02:06. The assay is described as above. To be noted: source organism: Dengue virus 3 Singapore/8120/1995.
The target in assay [14] is HLA-A*02:01. The assay is described as follows: IEDB peptide-MHC binding, purified MHC/competitive/fluorescence; filed as Kd, often an IC50 or EC50 that approximates it; ≥ and ≤ were set here for values at or beyond the usual limits of such assays. To be noted: source organism: Pseudomonas aeruginosa PACS2.
The target in another assay is HLA-A*69:01. The assay is described as above. The conditions noted are these: source organism: Pseudomonas aeruginosa PACS2.
The mark [15] stands for this setting: source organism: Zaire ebolavirus.
[16] abbreviates: source organism: Coxiella burnetii 'MSU Goat Q177'.
Setting [17] is: source organism: Vaccinia virus.
Setting [18] is: source organism: Dengue virus 1 Singapore/S275/1990.
Where [19] appears, read: source organism: Vaccinia virus WR.
Setting [20] is: source organism: Dengue virus 1 Brazil/97-11/1997.
The mark [21] stands for this setting: source organism: Escherichia coli 536.
[22] abbreviates: source organism: Salmonella enterica subsp. enterica serovar Typhi.
Setting [23] is: source organism: Dengue virus 4 Philippines/H241/1956.
Where [24] appears, read: source organism: Sudan ebolavirus.
[25] abbreviates: source organism: Dengue virus 3 Singapore/8120/1995.
[26] abbreviates: source organism: Escherichia coli str. K-12 substr. MG1655.
[27] abbreviates: source organism: Pseudomonas aeruginosa PACS2.

By IC50 is commonly meant the midpoint of a concentration-inhibition curve. Read a high IC50 as weaker potency. In general, Kd refers to the constant that tells how readily two partners part at equilibrium.

Regarding LSAIALGVA, the values for the IC50 in the assay with HLA-A*02:01 [1] (setting [15]) and in the assay with HLA-B*15:01 [2] (setting [15]) were 25.8 µM and at least 140 µM, respectively.
With YYLIKYLHV, the Kd is at least 20 µM with HLA-B*39:01 (setting [16]); at least 20 µM in the assay with HLA-B*57:01 [3] (setting [16]); at least 20 µM in the assay with HLA-A*26:01 [4] (setting [16]); at least 20 µM in the assay with HLA-B*51:01 [5] (setting [16]); 0.0715 µM in the assay with HLA-A*02:11; at least 20 µM with HLA-A*03:01 [6] (setting [16]). Also, the Kd with HLA-B*27:03 (setting [16]) is at least 20 µM; with HLA-A*02:12 (setting [16]) it was 1.17 µM; with HLA-B*18:01 (setting [16]), at least 20 µM; with HLA-B*46:01 (setting [16]), at least 20 µM; in the assay with HLA-B*15:01 [7] (setting [16]) it was at least 20 µM.
GMIAGWHGY: the Kd with HLA-A*29:02 (source organism: Influenza B virus (B/Victoria/2/1987)) was 0.0016 µM.
Turning to RMNSNQVCI, the half-inhibitory concentration (IC50) in the assay with HLA-A*02:01 [1] (setting [17]) was 3.44 µM; in the assay with HLA-A*03:01 [8] (setting [17]) it was at least 118 µM; in the assay with HLA-A*24:02 [9] (setting [17]) it was 0.0818 µM; in the assay with HLA-B*15:01 [2] (setting [17]) it was 18.1 µM.
In the case of GYYSTTIRY, the IC50 with HLA-A*03:01 [8] (setting [15]) is at least 300 µM; in the assay with HLA-A*24:02 [9] (setting [15]), 0.831 µM; with HLA-B*15:01 [2] (setting [15]), 4.56 µM.
Regarding ATQVEQHHR, the IC50 with HLA-A*11:01 (setting [15]) was 5.22 µM; in the assay with HLA-A*03:01 [8] (setting [15]) it was at least 90.8 µM.
Take VGKTSQVPK: the IC50 in the assay with HLA-A*11:01 (source organism: Variola virus) came out at 1.55 µM; with HLA-A*03:01 [8] (source organism: Variola virus), 13.5 µM.
Turning to FYMASTWGA, in the assay with HLA-A*68:02 (source organism: Entamoeba dispar SAW760), the Kd was 0.0831 µM.
With ETKKNLTRK, the half-maximal inhibitory concentration (IC50) is 14.1 µM with HLA-A*11:01 (setting [15]) and 49.6 µM in the assay with HLA-A*03:01 [8] (setting [15]).
The like results for PVYRDHSEK were, in that order, 7.12 µM and 7.62 µM.
With TTFSLHYAW, the Kd with HLA-B*57:01 [10] (setting [18]) came out at 0.00142 µM; with HLA-B*58:01 (setting [18]), 0.00159 µM; with HLA-A*32:01 (setting [18]), 0.00133 µM.
As for RSTKGGQQK, the values for the IC50 with HLA-A*11:01 (setting [15]) and with HLA-A*03:01 [8] (setting [15]) were 1.81 µM and 5.63 µM, respectively.
As for MSNGEHVPF, the IC50 is 5.46 µM with HLA-A*24:02 [9] (setting [19]) and 48.7 µM with HLA-B*15:01 [2] (setting [19]).
Take SATRLENIMW: the Kd in the assay with HLA-B*57:01 [10] (setting [20]) is 0.0117 µM; in the assay with HLA-B*58:01 (setting [20]), 0.0697 µM.
With ISRNTVKRY, the Kd is at least 20 µM in the assay with HLA-A*01:01 (setting [21]) and 0.284 µM in the assay with HLA-B*15:01 [7] (setting [21]).
LNTIQFMHE returned an IC50 in the assay with HLA-A*11:01 (setting [19]) of at least 147 µM.
In the assay with HLA-A*01:01 (source organism: Human immunodeficiency virus 1), WMSNGTWNY returned a Kd of 0.0089 µM.
With GTTEVNGLY, the Kd amounted to 0.0153 µM with HLA-A*01:01 (setting [22]) and 2.16 µM in the assay with HLA-A*03:01 [6] (setting [22]).
Regarding HILRSQGPF, the values for the IC50 with HLA-A*02:01 [1] (setting [15]), with HLA-A*24:02 [9] (setting [15]) and with HLA-B*15:01 [2] (setting [15]) were at least 519 µM, 5.72 µM and 12.8 µM, respectively.
In the case of RAKGSRAIW, the Kd is 0.172 µM in the assay with HLA-B*57:01 [10] (setting [23]) and 0.0271 µM with HLA-B*58:01 (setting [23]).
For WMNHHAITY, the Kd in the assay with HLA-A*29:02 (source organism: Orientia tsutsugamushi str. Boryong) was at most 0.0001 µM.
For RTYTILNRK, the IC50 with HLA-A*11:01 (setting [24]) worked out at 0.163 µM; with HLA-A*03:01 [8] (setting [24]), 1.05 µM; with HLA-A*24:02 [9] (setting [24]) it was 42.2 µM.
As for LMNFHQKKN, the results for the IC50 in the assay with HLA-A*02:01 [1] (setting [15]), with HLA-A*03:01 [8] (setting [15]) and with HLA-B*15:01 [2] (setting [15]) were at least 123 µM, at least 334 µM and at least 265 µM, respectively.
As for GASTSQETW, the Kd in the assay with HLA-B*57:01 [10] (setting [20]) is 0.0102 µM; with HLA-B*58:01 (setting [20]) it was 0.00293 µM; with HLA-B*53:01 (setting [20]), 0.623 µM.
Consider MAMTTVLSI, for which the Kd is 0.0189 µM in the assay with HLA-B*58:01 (setting [23]), 0.0363 µM in the assay with HLA-B*51:01 [11], 0.00234 µM with HLA-B*53:01 (setting [23]) and 0.0163 µM with HLA-B*08:01.
On to MIAGVLFTF, for which the Kd stood at 0.0202 µM with HLA-B*58:01 (setting [25]); 0.00473 µM in the assay with HLA-B*35:01; 1.23 µM with HLA-A*26:01 [12]; 0.026 µM with HLA-A*23:01; 0.0504 µM in the assay with HLA-A*24:02 [13]; 0.0225 µM with HLA-A*02:06. In addition, the Kd with HLA-A*32:01 (setting [25]) was determined as 0.00188 µM.
In the case of EAIRQIHAQ, the Kd with HLA-A*68:02 (source organism: Escherichia coli HS) came out at 0.809 µM.
In the case of ELACAVPFY, the Kd is at least 20 µM in the assay with HLA-A*01:01 (setting [26]) and 0.226 µM in the assay with HLA-B*15:01 [7] (setting [26]).
Turning to VVTNSTLEV, the IC50 in the assay with HLA-A*02:01 [1] (setting [24]) is 7.96 µM; in the assay with HLA-B*15:01 [2] (setting [24]), at least 114 µM.
With KLIDVSKCI, the Kd with HLA-B*39:01 (setting [27]) was at least 20 µM; with HLA-B*57:01 [3] (setting [27]), at least 20 µM; with HLA-A*02:01 [14] it was 0.0086 µM; with HLA-A*26:01 [4] (setting [27]), at least 20 µM; in the assay with HLA-B*51:01 [5] (setting [27]) it was at least 20 µM; with HLA-A*03:01 [6] (setting [27]) it was at least 20 µM. For the same sequence, the Kd was at least 20 µM with HLA-B*27:03 (setting [27]); at least 20 µM with HLA-A*29:02 (setting [27]); 0.0109 µM with HLA-A*02:12 (setting [27]); at least 20 µM with HLA-B*18:01 (setting [27]); at least 20 µM with HLA-A*69:01; at least 20 µM with HLA-B*46:01 (setting [27]).
